B1: #1-L4-#1: dimer of VHH #1 with linker L4 (GSEGKSSGSGSESKST), SEQ ID NO: 23 (protein)
VHH: QLQLVESGGGSVQAGGSLRLSCAASRSLSRFNVWTWYRQAPVKQRELVASITKSGDTNYAESVKGRFIISRDDDKNTVYLQMNNLKSEDTGIYYCAGSYYSGSYLYPSPGGFSVWGQGTQVTVSSGSEGKSSGSGSESKSTQLQLVESGGGSVQAGGSLRLSCAASRSLSRFNVWTWYRQAPVKQRELVASITKSGDTNYAESVKGRFIISRDDDKNTVYLQMNNLKSEDTGIYYCAGSYYSGSYLYPSPGGFSVWGQGTQVTVSS
modifications: #1-L4-#1

Tests used:
[1] = test system: mouse fibroblast cell line NIH/3T3; assay: Promotion of fibroblast growth by VHH (homodimer), cell growth assay; format: cell-based; conditions: NIH/3T3, serum-free, 2 days, 2-fold dilution series, 4-parameter fit; read-out: EC50 of the growth of cultured fibroblasts
Description: A mouse fibroblast cell line NIH/3T3 was used as a fibroblast. A mouse fibroblast cell line NIH/3T3 was obtained from ECACC through a domestic agent, subjected to extended culture, then cryopreserved at −80° C. using CellBanker1 plus (manufactured by ZENOAQ), and used. […]
The cell growth assay for bFGF was performed according to the following procedure. […] The plate was further left to stand for 8 minutes, and then the luminescence in each well was measured with a Synergy HTX plate reader (manufactured by BioTek) with a sensitivity set (Gain) of 200 and a measurement time of 1 s/well. […]
The measurement was performed at three points at each concentration of the test substance, and the conditions were set such that for the measurement at a single concentration, 100 ng/mL of bFGF was set as a positive control and a condition of no addition was set as a negative control. […] The EC50 measurement data were fitted to 4-parameter fit according to an ordinary method by control software attached to a plate reader, and an EC50 value was calculated.

iPS cells (253G1 cells) = assay: iPS cell culture: evaluation of preservation stability; format: cell-based, human; conditions: stock preserved 3 or 4 weeks at 4° C. versus −80° C.; 20 ng/mL
Description: Basic FGF and VHH stocks were collected in a 1.5 mL microtube 3 or 4 weeks before culturing, and preserved in a refrigerator (4° C.). Hereinafter, all operations were the same as those in the cell growth evaluation procedure, except that for basic FGF and VHH, a medium was prepared so that the both were preserved at 20 ng/mL using both refrigeration (4° C.)- and freeze (−80° C.)-preservation conditions.

[2] = test system: human bone marrow-derived MSC; assay: MSC: evaluation of fat differentiation induction (Oil Red O); format: cell-based; conditions: MSC after 3-passage subculture with 20 ng/ml additive, 14 days induction
Description: A third passage was performed in a CellBIND(R) 24-well transparent multi-well plate (Corning, C/N: 3337), and then at a time of reaching 80% to 90% confluence, medium exchange was performed in MesenCult Stem Cell Adipogenic Differentiation Medium (PromoCell, C/N: C-28016) which is a medium for differentiation induction. Furthermore, for the cells as a negative control, D-MEM (10% FBS or 20% FBS) was used for the medium exchange. The medium exchange was carried out every 2 to 4 days.
After 14 days from seeding, a 4% paraformaldehyde/phosphate buffer solution was added thereto at 500 μL/well, and the cells were left to stand for 2 hours or longer. After the immobilization, purified water was added thereto at 500 μL/well. An Oil Red stock liquid (Cosmo Bio Co., Ltd., C/N: AK09F) and purified water were mixed at a ratio of 6:4, and the mixture was left to stand at room temperature for 10 to 15 minutes. Thereafter, the filtrate was filtered through a membrane filter having a pore size of 0.5 to 1.0 μm, and the filtrate was used as an Oil Red O liquid. 500 μL of the Oil Red O liquid was added to each well and the mixture was left to stand at room temperature for 15 minutes. […] 100 μL of the eluate was transferred to a 96-well plate and the absorbance at 520 nm was measured. […]

Molecule | EC50 [1] | growth performance of iPS cells with additive preserved at 4° C. (iPS cells (253G1 cells)) | differentiation into the fat cell line (Oil Red O) [2]
FGF2: fibroblast growth factor (basic), human, recombinant (154aa), positive control; SEQ ID NO: 58 [reference compound] | 5.1 nM | growth performance was significantly deteriorated | Differentiation was similarly recognized
B1 | 11.6 nM | exhibited growth performance similar to that of VHH preserved at −80 °C | Differentiation was similarly recognized
